Assay [1] has as its target Acanthamoeba myosin-II (Acanthamoeba). Briefly: electron microscopy.
Assay [2] shares this target. Briefly: electron microscopy. The source holds these as a separate data set.
Assay [3] has as its target Acanthamoeba myosin-II, dephosphorylated, 0.8 heavy chain phosphates per molecule (Acanthamoeba). Briefly: sedimentation.
Assay [4] addresses Acanthamoeba myosin-II, 4.9 heavy chain phosphates per molecule (Acanthamoeba). As to the kind of experiment: sedimentation.
In assay [5] the target is Acanthamoeba myosin-II, 2.6 heavy chain phosphates per molecule (Acanthamoeba). Briefly: sedimentation.
Assay [6] shares this target. As to the kind of experiment: sedimentation. This is another data set of the same source.
Assay [7] has the same target. As to the kind of experiment: sedimentation. The source holds these as a separate data set.
Assay [8] has the same target. As to the kind of experiment: sedimentation. The source holds these as a separate data set.

By stoichiometry N is commonly meant the number of molecules, sites or subunits per partner or assembly.

Values joined by “and” are separate entries in the source; they are usually repeats but may differ in a detail not shown here. Equal entries are not always repeated. Where two headings read alike, the source gives them in different places. A value given as a limit tells only on which side of the number the result lay.

Take Acanthamoeba myosin-II (complex): the stoichiometry N in assay [1] is greater than 35; in assay [2] it was 16 and > 12.
As for “Acanthamoeba myosin-II, dephosphorylated, 0.8 heavy chain phosphates per molecule (complex)”, in assay [3], the critical concentration came to 18 µg/mL.
“Acanthamoeba myosin-II, 4.9 heavy chain phosphates per molecule (complex)”: in assay [4], the critical concentration was less than 5 µg/mL.
As to “Acanthamoeba myosin-II, 2.6 heavy chain phosphates per molecule (complex)”, the critical concentration was 20 µg/mL and 15 µg/mL in assay [5]; 26 µg/mL in assay [6]; 24 µg/mL and 32 µg/mL in assay [7]; 14 µg/mL and 18 µg/mL and 15 µg/mL in assay [8].

The record behind these values is PMC2112911.
